What was measured:
[1] = target: T1, IGF-1 receptor on the cells of the PathHunter IGF1R Functional Assay (DiscoverX) (UniProt P08069 31-1367); assay: cell-based or functional assay
[2] = target: T2, guinea pig IGF-1 receptor expressed on HEK293T cells (guinea pig, UniProt P08069 31-1367 (human entry)); assay: cell-based ELISA on fixed HEK293T cells expressing the IGF-1R, antibody at 5 nM, anti-human IgG HRP, absorbance 450 nm minus 650 nm
Description: (§1) HEK293T cells were transfected by lipofection method with pEF1 expression vectors (Thermo Fisher) incorporated with the IGF-1 receptor genes of rabbit (SEQ ID NO: 76), guinea pig (SEQ ID NO: 78), rat (SEQ ID NO: 80) and mouse SEQ ID NO: 82). The transfected HEK293T cells were allowed to grow overnight or longer after the lipofection, and were then added to a 96-well plate (poly-D-lysine coated) at 4×10⁴ cells/well. The cells were then fixed in 10% buffered formalin (Mildform® 10NM, Wako) and blocked with phosphate buffer containing 3% BSA before used for ELISA.
(§2) ELISA was carried out as follows. 100 μL of each humanized antibody solution prepared at 5 nM in 1% BSA/1% FBS/PBS was added to each well, and reacted at 37° C. for about 1 hour. Anti-human IgG antibody HRP conjugate solution prepared at each concentration in 1% BSA/1% FBS/PBS was added to each well at 100 μL, reacted at 37° C. for about 1 hour, and washed three times with washing solution. […] After about 30 minutes, 100 μL of 1M sulfuric acid was added to each well, the absorbances at 450 and 650 nm were measured, and the difference between the absorbances at 450 nm and at 650 nm was calculated. The calculated difference was compared with the difference between the absorbances at 450 nm and at 650 nm for HEK293T cells without IGF-1 receptor gene (Mock) to analyze the binding activity.

[3] = target: T3, rabbit IGF-1 receptor expressed on HEK293T cells (rabbit); assay: as above
T3 sequence (chain, as listed by the source limits assumed): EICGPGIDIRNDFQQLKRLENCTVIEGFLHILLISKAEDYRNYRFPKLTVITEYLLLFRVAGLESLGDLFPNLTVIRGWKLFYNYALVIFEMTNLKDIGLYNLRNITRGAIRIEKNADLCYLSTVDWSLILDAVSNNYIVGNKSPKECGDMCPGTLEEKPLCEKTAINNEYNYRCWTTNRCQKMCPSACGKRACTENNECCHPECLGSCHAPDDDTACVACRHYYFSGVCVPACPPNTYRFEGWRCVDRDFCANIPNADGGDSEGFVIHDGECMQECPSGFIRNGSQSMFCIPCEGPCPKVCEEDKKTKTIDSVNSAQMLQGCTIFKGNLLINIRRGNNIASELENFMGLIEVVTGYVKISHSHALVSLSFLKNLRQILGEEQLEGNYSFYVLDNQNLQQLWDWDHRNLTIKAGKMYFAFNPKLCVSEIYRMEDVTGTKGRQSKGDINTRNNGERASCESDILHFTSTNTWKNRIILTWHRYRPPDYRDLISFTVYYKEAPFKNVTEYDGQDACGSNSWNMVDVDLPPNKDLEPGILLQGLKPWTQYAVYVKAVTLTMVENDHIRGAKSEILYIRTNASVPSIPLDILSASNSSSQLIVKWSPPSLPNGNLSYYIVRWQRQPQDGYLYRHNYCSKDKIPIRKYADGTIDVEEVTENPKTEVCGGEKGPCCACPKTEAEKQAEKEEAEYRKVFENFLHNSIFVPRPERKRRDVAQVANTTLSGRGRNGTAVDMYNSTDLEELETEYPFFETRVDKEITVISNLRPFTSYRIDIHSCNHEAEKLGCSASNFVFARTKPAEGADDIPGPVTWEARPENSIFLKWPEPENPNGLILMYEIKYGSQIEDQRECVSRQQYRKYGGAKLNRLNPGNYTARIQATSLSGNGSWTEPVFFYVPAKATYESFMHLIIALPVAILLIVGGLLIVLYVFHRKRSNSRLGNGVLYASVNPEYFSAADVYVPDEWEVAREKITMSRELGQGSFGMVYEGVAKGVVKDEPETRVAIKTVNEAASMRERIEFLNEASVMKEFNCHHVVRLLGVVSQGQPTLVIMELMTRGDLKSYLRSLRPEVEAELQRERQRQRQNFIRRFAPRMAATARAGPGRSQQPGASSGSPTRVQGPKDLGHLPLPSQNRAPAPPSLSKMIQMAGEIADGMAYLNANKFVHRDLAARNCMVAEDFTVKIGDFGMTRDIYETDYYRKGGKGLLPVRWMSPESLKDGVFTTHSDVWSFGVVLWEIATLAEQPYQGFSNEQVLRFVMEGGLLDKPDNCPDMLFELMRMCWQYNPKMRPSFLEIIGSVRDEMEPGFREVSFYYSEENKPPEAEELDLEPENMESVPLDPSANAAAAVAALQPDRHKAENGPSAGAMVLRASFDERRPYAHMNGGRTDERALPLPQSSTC
Description: as §1, §2

[4] = target: rat IGF-1 receptor expressed on HEK293T cells (rat, UniProt P24062 31-1370); assay: cell-based ELISA on fixed HEK293T cells expressing the receptor, compared with Mock cells
Description: as §1
(§3) ELISA was carried out as follows. 100 μL of each humanized antibody solution prepared at 5 nM in 1% BSA/1% FBS/PBS was added to each well, and reacted at 37° C. for about 1 hour. Anti-human IgG antibody HRP conjugate solution prepared at each concentration in 1% BSA/1% FBS/PBS was added to each well at 100 μL, reacted at 37° C. for about 1 hour, and washed three times with washing solution. The reaction was initiated by adding 100 μL of substrate (TMB) to each well. After about 30 minutes, 100 μL of 1M sulfuric acid was added to each well, the absorbances at 450 and 650 nm were measured, and the difference between the absorbances at 450 nm and at 650 nm was calculated. The calculated difference was compared with the difference between the absorbances at 450 nm and at 650 nm for HEK293T cells without IGF-1 receptor gene (Mock) to analyze the binding activity.

[5] = target: mouse IGF-1 receptor expressed on HEK293T cells (mouse, UniProt Q60751 31-1373); assay: as above
Description: as §1, §3

[6] = target: T2, guinea pig IGF-1 receptor expressed on …; assay: cell-based ELISA on fixed HEK293T cells expressing the receptor, antibody at 5 nM
[7] = target: T4, human IGF-1 receptor expressed on HEK293T cells (human, UniProt P08069 31-1367); assay: as above
T4 construct: Cells fixed in formalin before the ELISA; also called human IGF-1 receptor-expressing cells
T4 sequence (P08069 31-1367 limits assumed): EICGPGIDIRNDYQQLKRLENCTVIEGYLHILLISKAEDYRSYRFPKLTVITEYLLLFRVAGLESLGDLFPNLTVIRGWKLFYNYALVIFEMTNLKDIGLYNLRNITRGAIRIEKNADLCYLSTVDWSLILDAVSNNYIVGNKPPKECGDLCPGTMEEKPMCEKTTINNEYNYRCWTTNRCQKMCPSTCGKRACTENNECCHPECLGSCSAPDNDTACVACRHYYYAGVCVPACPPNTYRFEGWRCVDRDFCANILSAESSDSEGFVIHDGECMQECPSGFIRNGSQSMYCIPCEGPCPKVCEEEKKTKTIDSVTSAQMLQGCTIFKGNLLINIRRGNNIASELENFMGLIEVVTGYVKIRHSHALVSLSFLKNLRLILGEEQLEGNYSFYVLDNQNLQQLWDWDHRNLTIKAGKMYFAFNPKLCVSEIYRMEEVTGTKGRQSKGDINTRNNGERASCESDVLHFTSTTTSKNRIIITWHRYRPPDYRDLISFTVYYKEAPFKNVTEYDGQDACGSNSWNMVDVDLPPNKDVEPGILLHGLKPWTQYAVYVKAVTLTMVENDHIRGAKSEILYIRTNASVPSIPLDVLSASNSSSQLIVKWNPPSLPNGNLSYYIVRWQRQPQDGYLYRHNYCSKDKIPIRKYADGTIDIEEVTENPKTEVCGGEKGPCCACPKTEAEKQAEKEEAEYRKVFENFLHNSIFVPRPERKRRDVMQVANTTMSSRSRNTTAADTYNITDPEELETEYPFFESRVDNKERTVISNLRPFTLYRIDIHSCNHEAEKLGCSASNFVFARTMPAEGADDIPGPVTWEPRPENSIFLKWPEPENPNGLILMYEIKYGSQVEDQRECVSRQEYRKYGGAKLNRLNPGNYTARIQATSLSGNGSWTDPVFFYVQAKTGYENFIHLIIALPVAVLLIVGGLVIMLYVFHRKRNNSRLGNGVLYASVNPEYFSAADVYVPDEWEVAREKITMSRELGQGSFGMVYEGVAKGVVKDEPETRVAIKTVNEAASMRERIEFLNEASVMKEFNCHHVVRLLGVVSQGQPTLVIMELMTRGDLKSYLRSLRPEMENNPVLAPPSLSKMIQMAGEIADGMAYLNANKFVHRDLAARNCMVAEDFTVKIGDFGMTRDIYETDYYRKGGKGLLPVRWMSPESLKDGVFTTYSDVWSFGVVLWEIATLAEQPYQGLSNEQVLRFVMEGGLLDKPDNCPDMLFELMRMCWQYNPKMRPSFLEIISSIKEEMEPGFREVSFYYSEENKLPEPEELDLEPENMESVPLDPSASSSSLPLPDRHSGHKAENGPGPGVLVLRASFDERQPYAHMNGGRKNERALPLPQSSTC

[8] = target: crab-eating macaque IGF-1 receptor expressed on HEK293T cells (crab-eating macaque); assay: as above
Chain of crab-eating macaque IGF-1 receptor expressed on HEK293T cells (crab-eating macaque) (chain, as listed by the source limits assumed): as the sequence (P08069 31-1367 limits assumed) above, with T188A, S471W, A729V, P738L, E1238D counted along it

[9] = target: T3, rabbit IGF-1 receptor expressed on …; assay: as above
[10] = target: T1, IGF-1 receptor on the cells of the …; assay: cell-based or functional assay; remark: listed apart in the source

T2 sequence (P08069 other isoform, or with tags, fused parts or gaps limits assumed): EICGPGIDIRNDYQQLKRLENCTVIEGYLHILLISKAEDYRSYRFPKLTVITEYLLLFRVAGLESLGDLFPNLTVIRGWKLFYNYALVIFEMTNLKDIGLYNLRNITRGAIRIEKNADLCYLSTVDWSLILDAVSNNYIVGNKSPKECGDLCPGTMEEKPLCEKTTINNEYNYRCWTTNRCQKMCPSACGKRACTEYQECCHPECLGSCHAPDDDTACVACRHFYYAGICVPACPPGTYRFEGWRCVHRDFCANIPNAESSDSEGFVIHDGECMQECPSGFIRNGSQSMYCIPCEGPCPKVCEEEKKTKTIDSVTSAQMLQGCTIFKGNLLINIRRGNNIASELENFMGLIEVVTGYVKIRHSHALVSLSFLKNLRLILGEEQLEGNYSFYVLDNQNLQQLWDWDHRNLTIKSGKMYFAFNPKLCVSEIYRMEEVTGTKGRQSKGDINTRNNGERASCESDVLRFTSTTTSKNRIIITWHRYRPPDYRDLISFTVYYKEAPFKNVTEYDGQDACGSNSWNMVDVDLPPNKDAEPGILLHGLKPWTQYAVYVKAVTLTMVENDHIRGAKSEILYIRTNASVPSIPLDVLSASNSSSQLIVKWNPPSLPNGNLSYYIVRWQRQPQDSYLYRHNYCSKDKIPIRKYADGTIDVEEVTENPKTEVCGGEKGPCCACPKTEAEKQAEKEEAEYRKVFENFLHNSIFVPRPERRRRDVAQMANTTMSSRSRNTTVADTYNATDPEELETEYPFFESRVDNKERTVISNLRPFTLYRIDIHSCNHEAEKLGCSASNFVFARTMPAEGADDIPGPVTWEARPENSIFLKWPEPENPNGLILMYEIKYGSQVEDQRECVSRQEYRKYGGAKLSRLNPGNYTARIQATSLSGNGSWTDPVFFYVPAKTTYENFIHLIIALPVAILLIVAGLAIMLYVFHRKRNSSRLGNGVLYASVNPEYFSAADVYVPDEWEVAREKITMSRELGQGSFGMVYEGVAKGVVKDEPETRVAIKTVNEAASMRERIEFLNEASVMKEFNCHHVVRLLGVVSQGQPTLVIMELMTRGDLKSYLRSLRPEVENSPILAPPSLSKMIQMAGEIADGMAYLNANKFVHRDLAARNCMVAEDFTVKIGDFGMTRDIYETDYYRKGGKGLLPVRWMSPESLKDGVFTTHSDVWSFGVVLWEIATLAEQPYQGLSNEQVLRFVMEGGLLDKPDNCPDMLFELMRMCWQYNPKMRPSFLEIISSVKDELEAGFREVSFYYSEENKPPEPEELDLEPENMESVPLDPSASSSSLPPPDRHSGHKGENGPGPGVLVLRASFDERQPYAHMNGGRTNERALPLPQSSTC
T1 sequence (P08069 31-1367): as the sequence (P08069 31-1367 limits assumed) above

Binder	Signal intensity (ratio to IGF11-16) at 16.7 nM, PathHunter [1]	binding result [2]	binding result [3]	binding result [4]	binding result [5]	binding activity, fold compared to Mock cells [6] [fold]	binding activity, fold compared to Mock cells [7] [fold]	binding activity, fold compared to Mock cells [8] [fold]	binding activity, fold compared to Mock cells [9] [fold]	Signal activation EC50 vs IGF11-16, PathHunter [10] [ratio vs IGF11-16]	Signal activation Emax vs IGF11-16, PathHunter [10] [ratio vs IGF11-16]
human chimeric IGF11-16 antibody (antibody, V domains shown, also called Chimera; human mouse chimeric antibody IGF11-16) VH: QIQLQQPGAELVKPGASVKLSCKAPGYTFTSYWMHWVKQRPGQGLEWIGETNPSNSVTNYNEKFKSKATLTVDKSSSTAYMQLSSLTSEDSAVYYCTIGRGRGFAYWGQGTLVTVSA VL: DIQMNQSPSSLSASLGDTITITCRASQNINFWLSWCQQKPGNIPKLLIYKASNLHTGVPSRFSGSGSGTDFTLTISSLQPEDIATYYCLQGQSYPYTFGGGTKLEIK	1 ratio to human chimeric IGF11-16	binds	binds								
humanized antibody hIGF13_PS (antibody, V domains shown, also called VL23/VH13_PS) VH: QVQLVQSGAEVKKPGASVKVSCKAPGYTFTSYWMHWVRQAPGQGLEWMGETNPSSSVTNYAQKFQGRVTLTVDTSTSTAYMELSSLRSEDTATYYCTIGRGRGFAYWGQGTLVTVSS VL: DIQMTQSPSSLSASVGDRVTITCRASQNINFWLSWYQQKPGKVPKLLIYKASNLHTGVPSRFSGSGSGTDFTLTISSLQPEDVATYYCLQGQSYPYTFGGGTKLEIK				no binding (tested: 5 nM)	no binding (tested: 5 nM)	~2	~2	~2	~2		

Now from value to binder:

Signal intensity (ratio to IGF11-16) at 16.7 nM, PathHunter [1]	binding result [2]	binding result [3]	binding result [4]	binding result [5]	binding activity, fold compared to Mock cells [6] [fold]	binding activity, fold compared to Mock cells [7] [fold]	binding activity, fold compared to Mock cells [8] [fold]	binding activity, fold compared to Mock cells [9] [fold]	Signal activation EC50 vs IGF11-16, PathHunter [10] [ratio vs IGF11-16]	Signal activation Emax vs IGF11-16, PathHunter [10] [ratio vs IGF11-16]	Binder
									9.5	1.5	IGF11-16 with alanine substitution of W at position 32 (CDR-L1) (antibody, V domains shown) VH: QIQLQQPGAELVKPGASVKLSCKAPGYTFTSYWMHWVKQRPGQGLEWIGETNPSNSVTNYNEKFKSKATLTVDKSSSTAYMQLSSLTSEDSAVYYCTIGRGRGFAYWGQGTLVTVSA VL: DIQMNQSPSSLSASLGDTITITCRASQNINFALSWCQQKPGNIPKLLIYKASNLHTGVPSRFSGSGSGTDFTLTISSLQPEDIATYYCLQGQSYPYTFGGGTKLEIK
			no binding (tested: 5 nM)	no binding (tested: 5 nM)	~2	~2	~2	~2			humanized antibody hIGF25_PS (antibody, V domains shown, also called VL23/VH25_PS) VH: QVQLVQSGAEVKKPGASVKVSCKAPGYTFTSYWMHWVRQAPGQGLEWMGETNPSSSVTNYAQKFQGRVTLTVDTSTSTAYMELSSLRSEDTAVYYCTIGRGRGFAYWGQGTLVTVSS VL: DIQMTQSPSSLSASVGDRVTITCRASQNINFWLSWYQQKPGKVPKLLIYKASNLHTGVPSRFSGSGSGTDFTLTISSLQPEDVATYYCLQGQSYPYTFGGGTKLEIK
